From US20190309079A1 (Regeneron, published 2019) come the findings set out here.

In assay [1] the target is mouse LEPR extracellular domain expressed with a C-terminal myc-myc-hexahistidine tag (mLEPR.mmh) (mouse, UniProt P48356 22-839). Put plainly: SPR, captured mAb, 25C and 37C. As to the method: Equilibrium dissociation constants (KD values) for LEPR binding to purified anti-LEPR monoclonal antibodies were determined using a real-time surface plasmon resonance biosensor using a Biacore 4000 instrument. All binding studies were performed in 10 mM HEPES, 150 mM NaCl, 3 mM EDTA, and 0.05% v/v Surfactant Tween-20, pH 7.4 (HBS-ET) running buffer at 25° C. and 37° C. The Biacore sensor surface was first derivatized by amine coupling with a monoclonal mouse anti-human Fc antibody (GE, # BR-1008-39) to capture anti-LEPR monoclonal antibodies. […] Kinetic association (kₐ) and dissociation (kd) rate constants were determined by fitting the real-time binding sensorgrams to a 1:1 binding model with mass transport limitation using Scrubber 2.0c curve-fitting software. Binding dissociation equilibrium constants (KD) and dissociative half-lives (t½) were calculated from the kinetic rate constants as: […]

Assay [2] addresses T1, human LEPR FNIII-MMH (human, UniProt P48357 636-839, limits assumed).
T1 construct: domain: FNIII
T1 sequence (looked up): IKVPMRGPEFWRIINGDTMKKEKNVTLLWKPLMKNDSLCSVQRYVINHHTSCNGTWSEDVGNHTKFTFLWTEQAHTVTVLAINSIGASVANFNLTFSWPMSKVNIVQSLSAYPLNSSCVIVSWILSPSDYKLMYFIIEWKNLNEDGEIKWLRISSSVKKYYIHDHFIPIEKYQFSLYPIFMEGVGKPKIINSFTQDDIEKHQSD
Put plainly: Luminex, myc-captured protein on beads. As to the method: (§1) Aliquots of microspheres with immobilized anti-myc monoclonal antibodies, prepared as described above, were added individually to 1 mL of the each of these protein supernatants. The microspheres were gently mixed, incubated for two hours at 25° C., washed twice with 1 mL of DBPS, centrifuged to remove the supernatant and finally resuspended in 1 mL of DPBS buffer. […] of anti-myc IgG coupled microspheres from individual reactions with full length human LEPR and with each of the human LEPR domain proteins were withdrawn and mixed together in 3.6 mL of PBS+20 mg/mL BSA+0.05% sodium azide (blocking buffer).
(§2) From this mixed pool, 75 μL of microspheres were plated per well on a 96 well filter plate (Millipore, Cat. No: MSBVN1250) and mixed with 25 μL of individual anti-human LEPR monoclonal antibodies (0.5 or 5 μg/mL), incubated for two hours at 25° C. and then washed twice with 200 μL of DPBS with 0.05% Tween 20 (washing buffer). […] After 30 minutes, the samples were washed twice with 200 µL of washing buffer and resuspended in 150 μL of wash buffer. The Median Fluorescence intensity (MFI) of the microspheres was measured in a Luminex Analyzer.

Assay [3] has as its target T2, human LEPR CRH1 (D1,D2)-MMH (human, UniProt P48357 22-339, limits assumed).
T2 construct: domain: CRH1 (D1,D2)
T2 sequence (looked up): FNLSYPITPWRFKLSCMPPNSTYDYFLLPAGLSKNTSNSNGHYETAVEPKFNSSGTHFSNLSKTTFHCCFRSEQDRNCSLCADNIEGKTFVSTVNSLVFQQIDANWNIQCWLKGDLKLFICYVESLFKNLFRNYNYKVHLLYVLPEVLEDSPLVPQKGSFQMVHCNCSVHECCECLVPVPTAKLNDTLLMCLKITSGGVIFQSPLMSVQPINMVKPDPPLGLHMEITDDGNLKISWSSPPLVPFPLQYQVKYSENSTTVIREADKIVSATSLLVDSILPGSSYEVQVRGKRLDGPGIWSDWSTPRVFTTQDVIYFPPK
Put plainly: Luminex, myc-captured protein on beads. As to the method:
as §1, §2

The target in assay [4] is T3, human LEPR CRH1 (D1)-MMH (human, UniProt P48357 22-229, limits assumed).
T3 construct: domain: CRH1 (D1)
T3 sequence (looked up): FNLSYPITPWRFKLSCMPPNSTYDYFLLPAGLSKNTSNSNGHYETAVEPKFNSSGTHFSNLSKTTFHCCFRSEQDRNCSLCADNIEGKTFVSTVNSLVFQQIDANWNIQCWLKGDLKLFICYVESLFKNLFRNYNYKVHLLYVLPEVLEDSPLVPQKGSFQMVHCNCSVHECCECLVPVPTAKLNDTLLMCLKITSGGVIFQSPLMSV
Put plainly: Luminex, myc-captured protein on beads. How it is done:
as §1, §2

For assay [5], the target named is T4, human LEPR CRH1-Ig (D1,D2,D3)-MMH (human, UniProt P48357 22-427, limits assumed).
T4 construct: domain: CRH1-Ig (D1,D2,D3); also called human LEPR CRH1 (D1,D2,D3)-MMH
T4 sequence (looked up): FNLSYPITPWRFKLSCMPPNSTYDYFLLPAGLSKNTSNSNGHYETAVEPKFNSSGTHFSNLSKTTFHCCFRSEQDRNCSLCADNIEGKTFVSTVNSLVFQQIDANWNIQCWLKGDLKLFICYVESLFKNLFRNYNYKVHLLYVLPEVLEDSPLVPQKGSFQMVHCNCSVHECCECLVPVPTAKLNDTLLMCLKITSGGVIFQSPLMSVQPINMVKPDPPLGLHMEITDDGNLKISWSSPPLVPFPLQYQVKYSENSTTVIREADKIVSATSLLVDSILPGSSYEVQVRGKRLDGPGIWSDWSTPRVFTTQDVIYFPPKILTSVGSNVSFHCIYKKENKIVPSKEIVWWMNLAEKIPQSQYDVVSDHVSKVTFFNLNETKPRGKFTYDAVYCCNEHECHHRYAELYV
Put plainly: Luminex, myc-captured protein on beads. How it is done:
as §1, §2

Assay [6] concerns the target T5, human LEPR extracellular domain expressed with a C-terminal myc-myc-hexahistidine tag (hLEPR.mmh) (human, UniProt P48357 22-839).
T5 construct: tag included in the entry; also called human LEPR-MMH; monomeric human LEPR
Put plainly: Luminex, myc-captured protein on beads. How it is done: as §1, §2

For assay [7], the target named is T6, human LEPR Ig (D3)-MMH (human, UniProt P48357 340-427, limits assumed).
T6 construct: domain: Ig (D3)
T6 sequence (looked up): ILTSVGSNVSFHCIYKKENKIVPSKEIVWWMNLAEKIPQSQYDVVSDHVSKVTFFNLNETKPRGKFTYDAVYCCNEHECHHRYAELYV
Put plainly: Luminex, myc-captured protein on beads. How it is done:
as §1, §2

Assay [8] has as its target T7, human LEPR CRH2-MMH (human, UniProt P48357 428-634, limits assumed).
T7 construct: domain: CRH2
T7 sequence (looked up): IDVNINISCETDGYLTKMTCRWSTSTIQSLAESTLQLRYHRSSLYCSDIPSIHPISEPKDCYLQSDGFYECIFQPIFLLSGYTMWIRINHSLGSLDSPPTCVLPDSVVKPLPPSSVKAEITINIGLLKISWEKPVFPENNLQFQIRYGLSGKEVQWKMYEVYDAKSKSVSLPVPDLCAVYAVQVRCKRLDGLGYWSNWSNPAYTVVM
Put plainly: Luminex, myc-captured protein on beads. As to the method: as §1, §2

Sequence of mouse LEPR extracellular domain expressed with a C-terminal myc-myc-hexahistidine tag (mLEPR.mmh) (P48356 other isoform, or with tags, fused parts or gaps): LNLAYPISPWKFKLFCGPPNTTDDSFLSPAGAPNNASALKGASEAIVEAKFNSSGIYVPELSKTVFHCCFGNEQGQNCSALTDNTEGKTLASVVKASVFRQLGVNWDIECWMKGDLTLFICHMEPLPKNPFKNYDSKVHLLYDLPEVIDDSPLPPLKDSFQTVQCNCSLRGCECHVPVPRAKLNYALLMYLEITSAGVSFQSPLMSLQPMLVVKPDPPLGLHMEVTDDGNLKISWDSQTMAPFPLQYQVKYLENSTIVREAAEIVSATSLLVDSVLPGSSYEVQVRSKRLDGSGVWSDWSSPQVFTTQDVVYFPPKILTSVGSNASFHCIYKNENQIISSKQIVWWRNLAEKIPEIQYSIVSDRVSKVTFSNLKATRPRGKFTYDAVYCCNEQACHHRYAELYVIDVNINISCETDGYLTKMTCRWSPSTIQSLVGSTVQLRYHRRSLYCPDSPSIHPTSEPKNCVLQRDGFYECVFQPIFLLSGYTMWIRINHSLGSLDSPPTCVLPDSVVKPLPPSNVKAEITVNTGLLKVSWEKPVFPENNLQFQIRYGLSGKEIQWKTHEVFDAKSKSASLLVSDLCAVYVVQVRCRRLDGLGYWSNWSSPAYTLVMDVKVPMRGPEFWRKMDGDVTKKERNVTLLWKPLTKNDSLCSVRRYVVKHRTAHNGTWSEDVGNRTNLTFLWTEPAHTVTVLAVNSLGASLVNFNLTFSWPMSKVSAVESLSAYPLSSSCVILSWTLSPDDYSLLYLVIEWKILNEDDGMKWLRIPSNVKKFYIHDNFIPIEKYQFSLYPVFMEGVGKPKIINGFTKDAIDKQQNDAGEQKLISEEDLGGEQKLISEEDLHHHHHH

B1: H4H18438P2 (antibody, V domains shown)
VH: QVQLVESGGGVVQPGRSLRLSCAASGFSFNTYGMHWVRQAPGKGLEWVTIIWYDGSIKYYADSVKGRFTISRDNSKNTLYLQMNSLRAEDTAVYYCARGGYSGYLYFDYWGQGTLVTVSS
VL: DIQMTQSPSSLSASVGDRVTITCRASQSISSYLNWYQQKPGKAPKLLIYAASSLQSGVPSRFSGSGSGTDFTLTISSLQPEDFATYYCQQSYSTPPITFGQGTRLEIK
Regarding B1, in assay [1], the binding result was “no binding (tested: 100 nM)”. The “Luminex MFI” value in assay [2] turned out to be 25 MFI; in assay [3], 18900 MFI; in assay [4], 13 MFI; in assay [5], 6570 MFI; in assay [6] it was 6250 MFI; in assay [7], 30 MFI.

B2: H4H16650P2 (antibody, V domains shown)
VH: QVQLVESGGGVVQPGKSLRLSCVASGFTFSSDAMYWVRQAPGKGLEWVAVIYYDGNYQYYEDSVKGRFTISRDNSQNTLDLQMNSLRVDDTAVYFCARLNWDYWYLDLWGRGTLVTVSS
VL: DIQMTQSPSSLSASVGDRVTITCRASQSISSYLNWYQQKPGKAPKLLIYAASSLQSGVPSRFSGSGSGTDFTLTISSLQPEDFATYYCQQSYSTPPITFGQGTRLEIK
In the case of B2, the binding result in assay [1] is “no binding (tested: 100 nM)”. The “Luminex MFI” value in assay [2] turned out to be 6 MFI; in assay [8], 16 MFI; in assay [3] it was 4720 MFI; in assay [4], 8 MFI; in assay [5], 2560 MFI; in assay [6], 7600 MFI. In addition, in assay [7], the “Luminex MFI” value was 10 MFI.

B3: H4H16679P2 (antibody, V domains shown)
VH: QVQLVESGGGVVQPGRSLRLSCTASGFTFSSYAMYWVRQAPGKGLEWVSVIYYDGSYKYYADSVKGRFTISRDNSKNTLYLQMDSLRAEDTAVYYCASYNWNYWYFDFWGRGTLVTVSS
VL: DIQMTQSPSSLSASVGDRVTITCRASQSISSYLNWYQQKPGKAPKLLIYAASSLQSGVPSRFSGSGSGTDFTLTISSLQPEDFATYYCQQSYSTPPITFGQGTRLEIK
Turning to B3, the binding result in assay [1] is “no binding (tested: 100 nM)”. In addition, the “Luminex MFI” value in assay [2] is 10 MFI; in assay [8], 33 MFI; in assay [3], 4390 MFI; in assay [4], 12 MFI; in assay [5], 2800 MFI; in assay [6], 7510 MFI. In addition, the “Luminex MFI” value in assay [7] was determined as 14 MFI.

B4: H4H17321P2 (antibody, V domains shown)
VH: QVQLVESGGGVVQPGRSLRLSCEASGFSSSDNAMYWVRQAPGKGLEWVSVIYHDGSYKYYEDSVKGRFTIARDNSKNTLYLQMNSLRAEDTAVYYCARYNWNHWYFDVWGRGTLVTVSS
VL: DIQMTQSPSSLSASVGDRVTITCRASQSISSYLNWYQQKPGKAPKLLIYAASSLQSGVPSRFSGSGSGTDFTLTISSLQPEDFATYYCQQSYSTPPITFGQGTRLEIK
Take B4: in assay [1], the binding result is “no binding (tested: 100 nM)”. Moreover, the “Luminex MFI” value stood at 40 MFI in assay [2]; 116 MFI in assay [8]; 2650 MFI in assay [3]; 9 MFI in assay [4]; 1750 MFI in assay [5]; 4700 MFI in assay [6]. Moreover, in assay [7], the “Luminex MFI” value worked out at 7 MFI.

B5: H4H18449P2 (antibody, human IgG4, V domains shown)
VH: EVQLVESGGGLVQPGGSLRLSCVASGFTFNKYDMHWVRQTTGKGLEWVSGIDTDGDTYYPGSVKGRFTISRENAENSLYLQMNGLRVGDTAVYYCARWPWSGFYGAFDIWGQGTMVTVSS
VL: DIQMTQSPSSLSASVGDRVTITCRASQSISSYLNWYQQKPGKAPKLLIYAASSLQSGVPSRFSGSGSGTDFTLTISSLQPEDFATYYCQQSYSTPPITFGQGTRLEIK
notes: human IgG4 Fc
Consider B5, for which the binding result in assay [1] is “no binding (tested: 100 nM)”. Further, the “Luminex MFI” value in assay [2] worked out at 13 MFI; in assay [8], 15 MFI; in assay [3] it was 2930 MFI; in assay [4], 20 MFI; in assay [5], 2060 MFI; in assay [6] it was 7980 MFI. Moreover, the “Luminex MFI” value in assay [7] was 24 MFI.

B6: H4H17319P2 (antibody, V domains shown)
VH: QVQLVESGGSVVQPGRSLRLSCAASGFTFSTYAMYWVRQTPGKGLEWVAVLYSDGSNKYYIDSVKGRFTISRDTSTNTLYLQMSSLRADDSALYYCARLNWDYWYFDLWGRGTLVTVSS
VL: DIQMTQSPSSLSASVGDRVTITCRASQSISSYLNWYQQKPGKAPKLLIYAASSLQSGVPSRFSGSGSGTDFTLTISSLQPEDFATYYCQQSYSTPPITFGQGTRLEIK
notes: also called REGN4461
Take B6: the binding result in assay [1] is “no binding (tested: 100 nM)”. Besides, the “Luminex MFI” value in assay [2] stood at 20 MFI; in assay [8], 91 MFI; in assay [3], 1250 MFI; in assay [4], 8 MFI; in assay [5] it was 938 MFI; in assay [6] it was 3300 MFI. Besides, the “Luminex MFI” value in assay [7] turned out to be 8 MFI.

B7: H4H18446P2 (antibody, human IgG4, V domains shown)
VH: EVQLVESGGGLVQPGGSLRLSCAASGFTFSNYGMTWVRQAPGKGLEWVSAITGGGGSTYYSNSVKGRFTISRDNSKNTVYLRMNSVRAEDTAVYYCAKYKWNFVDDWGQGTTVTVSS
VL: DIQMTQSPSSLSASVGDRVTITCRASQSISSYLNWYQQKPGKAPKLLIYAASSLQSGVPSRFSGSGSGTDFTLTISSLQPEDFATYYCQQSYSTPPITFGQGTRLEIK
notes: human IgG4 Fc
Consider B7, for which the binding result in assay [1] is on record as “no binding (tested: 100 nM)”. Besides, the “Luminex MFI” value in assay [2] was 32 MFI; in assay [8], 65 MFI; in assay [3], 682 MFI; in assay [4] it was 17 MFI; in assay [6], 10500 MFI; in assay [7], 25 MFI.

B8: H4H18417P2 (antibody, V domains shown)
VH: QVQLVESGGGVVQPGRSLRLSCAASGFTFSTYGMHWVRQAPGKGLEWVSVISYDESNKYYADSVKGRFTISRDNSKNALYLQMNSLRNEDTAVYYCARDRPFGLVTGWFDPWGQGTLVTVSS
VL: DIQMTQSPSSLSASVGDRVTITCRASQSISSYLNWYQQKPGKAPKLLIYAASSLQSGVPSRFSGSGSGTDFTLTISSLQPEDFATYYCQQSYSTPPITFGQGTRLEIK
Take B8: the binding result in assay [1] is listed as “no binding (tested: 100 nM)”. Besides, the “Luminex MFI” value in assay [2] worked out at 14 MFI; in assay [8], 39 MFI; in assay [3] it was 16000 MFI; in assay [4], 10 MFI; in assay [5], 3330 MFI; in assay [6] it was 4890 MFI. In addition, the “Luminex MFI” value in assay [7] stood at 17 MFI.

B9: H4H18445P2 (antibody, human IgG4, V domains shown)
VH: QVQLQESGPGLVKPSQTLSLTCTVSGGSISSGGDYWSWIRQLPGKGLEWIGYIYYSGSAYYNPSLKSRGTISIDTSKNQFSLKLTSVTAADTAVYFCVKLRFLEWFLGGWFGPWGQGTLVTVSS
VL: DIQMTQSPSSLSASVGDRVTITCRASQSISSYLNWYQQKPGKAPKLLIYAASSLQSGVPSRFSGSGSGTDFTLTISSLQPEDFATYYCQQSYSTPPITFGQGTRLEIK
notes: human IgG4 Fc
Regarding B9, the binding result in assay [1] is “no binding (tested: 100 nM)”. The “Luminex MFI” value in assay [2] stood at 230 MFI; in assay [8], 17 MFI; in assay [3], 30 MFI; in assay [4], 12 MFI; in assay [5], 22 MFI; in assay [6], 6570 MFI. Also, the “Luminex MFI” value in assay [7] was 19 MFI.
